B1: Transcription factor MYB75 (Arabidopsis thaliana (Mouse-ear cress)), Q9FE25 (parent)
chain: MEGSSKGLRKGAWTTEEDSLLRQCINKYGEGKWHQVPVRAGLNRCRKSCRLRWLNYLKPSIKRGKLSSDEVDLLLRLHRLLGNRWSLIAGRLPGRTANDVKNYWNTHLSKKHEPCCKIKMKKRDITPIPTTPALKNNVYKPRPRSFTVNNDCNHLNAPPKVDVNPPCLGLNINNVCDNSIIYNKDKKKDQLVNNLIDGDNMWLEKFLEESQEVDILVPEATTTEKGDTLAFDVDQLWSLFDGETVKFD
partner: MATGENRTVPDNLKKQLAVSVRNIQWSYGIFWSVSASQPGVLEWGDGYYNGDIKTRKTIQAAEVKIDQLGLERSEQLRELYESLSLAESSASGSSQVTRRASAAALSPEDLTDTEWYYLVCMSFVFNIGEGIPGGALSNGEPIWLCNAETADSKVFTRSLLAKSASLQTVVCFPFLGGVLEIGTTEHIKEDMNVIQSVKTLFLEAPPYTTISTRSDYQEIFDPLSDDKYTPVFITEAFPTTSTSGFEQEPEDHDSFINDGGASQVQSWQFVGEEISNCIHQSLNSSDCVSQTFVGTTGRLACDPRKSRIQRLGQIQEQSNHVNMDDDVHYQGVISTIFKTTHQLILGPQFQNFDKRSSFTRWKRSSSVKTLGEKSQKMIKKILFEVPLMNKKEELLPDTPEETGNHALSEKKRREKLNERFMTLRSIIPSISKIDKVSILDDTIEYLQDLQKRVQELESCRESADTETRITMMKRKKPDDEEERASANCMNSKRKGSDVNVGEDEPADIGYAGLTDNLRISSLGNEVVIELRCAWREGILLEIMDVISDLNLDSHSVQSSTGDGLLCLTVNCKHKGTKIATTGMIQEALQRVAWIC

Variants of: B1
Conditions: with egl1_arath BHLH2, Q9CAD0

Row | effect of a mutation on the interaction | Variant
1 | decreasing interaction | MEGSSKGLRKGAWTTEEDSLLRQCINKYGEGKWHQVPVRAGLNRCRKSCRLRWLNYLKPSIKRGKLSSDEVDLLLRLHRLLGNRWSLIAGALPGRTANDVKNYWNTHLSKKHEPCCKIKMKKRDITPIPTTPALKNNVYKPRPRSFTVNNDCNHLNAPPKVDVNPPCLGLNINNVCDNSIIYNKDKKKDQLVNNLIDGDNMWLEKFLEESQEVDILVPEATTTEKGDTLAFDVDQLWSLFDGETVKFD [R91A]
2 | decreasing interaction | MEGSSKGLRKGAWTTEEDSLLRQCINKYGEGKWHQVPVRAGLNRCRKSCRLRWLNYLKPSIKRGKLSSDEVDLLLRLHRLLGNRWSLIAGDLPGRTANDVKNYWNTHLSKKHEPCCKIKMKKRDITPIPTTPALKNNVYKPRPRSFTVNNDCNHLNAPPKVDVNPPCLGLNINNVCDNSIIYNKDKKKDQLVNNLIDGDNMWLEKFLEESQEVDILVPEATTTEKGDTLAFDVDQLWSLFDGETVKFD [R91D]
3 | decreasing interaction | MEGSSKGLRKGAWTTEEDSLLRQCINKYGEGKWHQVPVRAGLNRCRKSCRLRWLNYLKPSIKRGKLSSDEVDLLLRLHSLLGNRWSLIAGRLPGRTANDVKNYWNTHLSKKHEPCCKIKMKKRDITPIPTTPALKNNVYKPRPRSFTVNNDCNHLNAPPKVDVNPPCLGLNINNVCDNSIIYNKDKKKDQLVNNLIDGDNMWLEKFLEESQEVDILVPEATTTEKGDTLAFDVDQLWSLFDGETVKFD [R79S]
4 | decreasing interaction | MEGSSKGLRKGAWTTEEDSLLRQCINKYGEGKWHQVPVRAGLNRCRKSCRLRWLNYLKPSIKRGKLSSDEVDILLRLHRLLGNRWSLIAGRLPGRTANDVKNYWNTHLSKKHEPCCKIKMKKRDITPIPTTPALKNNVYKPRPRSFTVNNDCNHLNAPPKVDVNPPCLGLNINNVCDNSIIYNKDKKKDQLVNNLIDGDNMWLEKFLEESQEVDILVPEATTTEKGDTLAFDVDQLWSLFDGETVKFD [L73I]
5 | decreasing interaction | MEGSSKGLRKGAWTTEEDSLLRQCINKYGEGKWHQVPVRAGLNRCRKSCRLRWLNYLKPSIKRGKLSSDEVDLLLRLHRALGNRWSLIAGRLPGRTANDVKNYWNTHLSKKHEPCCKIKMKKRDITPIPTTPALKNNVYKPRPRSFTVNNDCNHLNAPPKVDVNPPCLGLNINNVCDNSIIYNKDKKKDQLVNNLIDGDNMWLEKFLEESQEVDILVPEATTTEKGDTLAFDVDQLWSLFDGETVKFD [L80A]
6 | decreasing interaction | MEGSSKGLRKGAWTTEEDSLLRQCINKYGEGKWHQVPVRAGLNRCRKSCRLRWLNYLKPSIKRGKLSSDEVDLLLKLHRLLGNRWSLIAGRLPGRTANDVKNYWNTHLSKKHEPCCKIKMKKRDITPIPTTPALKNNVYKPRPRSFTVNNDCNHLNAPPKVDVNPPCLGLNINNVCDNSIIYNKDKKKDQLVNNLIDGDNMWLEKFLEESQEVDILVPEATTTEKGDTLAFDVDQLWSLFDGETVKFD [R76K]
7 | decreasing interaction | MEGSSKGLRKGAWTTEEDSLLRQCINKYGEGKWHQVPVRAGLNRCRKSCRLRWLNYLKPSIKRGKLSSDEVDLLLELHRLLGNRWSLIAGRLPGRTANDVKNYWNTHLSKKHEPCCKIKMKKRDITPIPTTPALKNNVYKPRPRSFTVNNDCNHLNAPPKVDVNPPCLGLNINNVCDNSIIYNKDKKKDQLVNNLIDGDNMWLEKFLEESQEVDILVPEATTTEKGDTLAFDVDQLWSLFDGETVKFD [R76E]
